The test addresses polymerized nonmuscle actin (F-actin) (UniProt P60709). Briefly: co-sedimentation.

From publication PMC3248895 come the findings set out here.

By Kd is commonly meant the constant that tells how readily two partners part at equilibrium.

For “GST-connecdenn 3 789–801 wild type (from UniProt Q8IV53 789-801) (peptide)”, the equilibrium dissociation constant (Kd) is 10.7 µM.
